According to patent US20210246166A1 (Bayer, published 2021):
Blank lines part the entries; values can stand above or below the binder they belong to. Bridge positions count the residues as written; N and C are the ends. Square brackets hold non-standard residues; d marks the D form. Ends that are not written are not given here. * marks the point of attachment. (Trifluoro)l/L = 5,5,5-trifluoro-DL-leucine; Pro(trans-4-F) = O=C(O)[C@@H]1C[C@@H](F)CN1; Oic = O=C(O)[C@@H]1C[C@@H]2CCCC[C@@H]2N1; Butanoyl(3,3-Me2) = CC(C)(C)CC(=O)*; Cyclobutylacetic = O=C(CC1CCC1)*; Hyp = O=C(O)[C@@H]1C[C@@H](O)CN1; NMeI = CC[C@H](C)[C@H](NC)C(=O)O; tBuAla = CC(C)(C)C[C@H](N)C(=O)O; Gly(cBu) = N[C@H](C(=O)O)C1CCC1; Pen = CC(C)(S)[C@H](N)C(=O)O; NMeC = CN[C@@H](CS)C(=O)O; Orn = NCCC[C@H](N)C(=O)O; Lac = C[C@H](O)C(=O)O; Ahx = NCCCCCC(=O)O; Sar = CNCC(=O)O

Key:
[1] = biological target: T1, recombinant human MASP1 active protease (amino acids 297-699, C-terminal His Tag) (human, UniProt P48740 297-699); test: cell-based or functional assay
T1 sequence: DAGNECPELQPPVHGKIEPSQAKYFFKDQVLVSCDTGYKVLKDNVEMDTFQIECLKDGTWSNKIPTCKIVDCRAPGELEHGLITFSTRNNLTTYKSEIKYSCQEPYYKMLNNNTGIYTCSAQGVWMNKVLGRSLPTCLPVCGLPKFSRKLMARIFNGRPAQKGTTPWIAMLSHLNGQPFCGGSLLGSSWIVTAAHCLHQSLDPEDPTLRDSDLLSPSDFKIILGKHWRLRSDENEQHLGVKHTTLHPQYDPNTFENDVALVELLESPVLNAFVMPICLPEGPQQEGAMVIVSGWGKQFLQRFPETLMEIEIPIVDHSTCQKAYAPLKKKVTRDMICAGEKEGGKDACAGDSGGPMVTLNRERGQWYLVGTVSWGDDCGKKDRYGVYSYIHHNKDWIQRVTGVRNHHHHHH

[2] = biological target: recombinant human MASP2 active protease (amino acids 297-686, C-terminal His Tag) (human, UniProt O00187 297-686); test: cell-based or functional assay
Chain of recombinant human MASP2 active protease (amino acids 297-686, C-terminal His Tag) (O00187 other isoform, or with tags, fused parts or gaps limits assumed): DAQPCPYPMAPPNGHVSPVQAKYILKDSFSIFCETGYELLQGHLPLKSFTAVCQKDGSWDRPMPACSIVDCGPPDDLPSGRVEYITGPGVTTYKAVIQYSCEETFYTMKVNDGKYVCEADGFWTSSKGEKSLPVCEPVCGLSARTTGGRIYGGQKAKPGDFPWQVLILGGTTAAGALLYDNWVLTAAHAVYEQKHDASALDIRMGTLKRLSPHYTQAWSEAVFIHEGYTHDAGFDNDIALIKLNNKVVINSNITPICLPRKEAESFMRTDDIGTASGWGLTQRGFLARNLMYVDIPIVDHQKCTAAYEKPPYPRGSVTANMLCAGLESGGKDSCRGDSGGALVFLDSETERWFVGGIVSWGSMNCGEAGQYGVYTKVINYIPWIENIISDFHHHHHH

B1: Example 379: ((N-Me)I)-C+SRS-((tBu)A)-PPI-(Pen)+IP-NH2 (peptide)
peptide: [NMeI]CSRS[tBuAla]PPI[Pen]IP-NH2
modifications: disulfide 2-10; N-terminus assumed
SMILES: CC[C@H](C)[C@H](NC)C(=O)N[C@H]1CSSC(C)(C)[C@@H](C(=O)N[C@H](C(=O)N2CCC[C@H]2C(N)=O)[C@@H](C)CC)NC(=O)[C@H]([C@@H](C)CC)NC(=O)[C@@H]2CCCN2C(=O)[C@@H]2CCCN2C(=O)[C@H](CC(C)(C)C)NC(=O)[C@H](CO)NC(=O)[C@H](CCCNC(=N)N)NC(=O)[C@H](CO)NC1=O
human MASP1 IC50 [1]: 39 nM | human MASP2 IC50 [2]: 360 nM

B3: Example 381: ((N-Me)G)-(Orn)-(Orn)-(Orn)-IC+SRS-((tBu)A)-PPI-(Pen)+IP-NH2 (peptide)
peptide: [Sar][Orn][Orn][Orn]ICSRS[tBuAla]PPI[Pen]IP-NH2
modifications: disulfide 6-14; N-terminus assumed
SMILES: CC[C@H](C)[C@H](NC(=O)[C@H](CCCN)NC(=O)[C@H](CCCN)NC(=O)[C@H](CCCN)NC(=O)CNC)C(=O)N[C@H]1CSSC(C)(C)[C@@H](C(=O)N[C@H](C(=O)N2CCC[C@H]2C(N)=O)[C@@H](C)CC)NC(=O)[C@H]([C@@H](C)CC)NC(=O)[C@@H]2CCCN2C(=O)[C@@H]2CCCN2C(=O)[C@H](CC(C)(C)C)NC(=O)[C@H](CO)NC(=O)[C@H](CCCNC(=N)N)NC(=O)[C@H](CO)NC1=O
human MASP1 IC50 [1]: 40 nM | human MASP2 IC50 [2]: 550 nM

B4: Example 389: AIC+SRSLPP-(Cyclobutylglycine)-C+IPD-NH2 (peptide)
peptide: AICSRSLPP[Gly(cBu)]CIPD-NH2
modifications: disulfide 3-11; N-terminus assumed
SMILES: CC[C@H](C)[C@H](NC(=O)[C@H](C)N)C(=O)N[C@H]1CSSC[C@@H](C(=O)N[C@H](C(=O)N2CCC[C@H]2C(=O)N[C@@H](CC(=O)O)C(N)=O)[C@@H](C)CC)NC(=O)[C@H](C2CCC2)NC(=O)[C@@H]2CCCN2C(=O)[C@@H]2CCCN2C(=O)[C@H](CC(C)C)NC(=O)[C@H](CO)NC(=O)[C@H](CCCNC(=N)N)NC(=O)[C@H](CO)NC1=O
human MASP1 IC50 [1]: 46 nM | human MASP2 IC50 [2]: 330 nM

B5: Example 377: IC+SRSLP-(Oic)-I-(Pen)+IPQ-NH2 (peptide)
peptide: ICSRSLP[Oic]I[Pen]IPQ-NH2
modifications: disulfide 2-10; N-terminus assumed
SMILES: CC[C@H](C)[C@H](N)C(=O)N[C@H]1CSSC(C)(C)[C@@H](C(=O)N[C@H](C(=O)N2CCC[C@H]2C(=O)N[C@@H](CCC(N)=O)C(N)=O)[C@@H](C)CC)NC(=O)[C@H]([C@@H](C)CC)NC(=O)[C@@H]2C[C@@H]3CCCC[C@@H]3N2C(=O)[C@@H]2CCCN2C(=O)[C@H](CC(C)C)NC(=O)[C@H](CO)NC(=O)[C@H](CCCNC(=N)N)NC(=O)[C@H](CO)NC1=O
human MASP1 IC50 [1]: 37 nM | human MASP2 IC50 [2]: 810 nM

Binder: {2‑Hydroxyisobutyric}-ICSRS[tBuAla]PPICIPD-NH2 (disulfide 2-10) [Example 392: (2-Hydroxyisobutyric)-IC+SRS-((tBu)A)-PPIC+IPD-NH2]
human MASP1 IC50 [1]: 47 nM | human MASP2 IC50 [2]: 80 nM

Binder: GICSRS[(Trifluoro)l/L]PPICIPD-OH (disulfide 3-11) [Example 384: GIC+SRS-((Trifluoro)l/L)-PPIC+IPD-OH]
human MASP1 IC50 [1]: 42 nM | human MASP2 IC50 [2]: 260 nM

B9: Example 396: (tert-Butylacetic acid)-IC+SRS-((tBu)A)-PPI-(Pen)+I-NH2 (peptide)
peptide: {Butanoyl(3,3-Me2)}-ICSRS[tBuAla]PPI[Pen]I-NH2
modifications: disulfide 2-10
SMILES: CC[C@H](C)[C@H](NC(=O)[C@H]1NC(=O)[C@H]([C@@H](C)CC)NC(=O)[C@@H]2CCCN2C(=O)[C@@H]2CCCN2C(=O)[C@H](CC(C)(C)C)NC(=O)[C@H](CO)NC(=O)[C@H](CCCNC(=N)N)NC(=O)[C@H](CO)NC(=O)[C@@H](NC(=O)[C@@H](NC(=O)CC(C)(C)C)[C@@H](C)CC)CSSC1(C)C)C(N)=O
human MASP1 IC50 [1]: 53 nM | human MASP2 IC50 [2]: 28 nM

B10: Example 390: ((N-Me)G)-IC+SRSLP-((trans-4-Fluoro)P)-IC+IPD-OH (peptide)
peptide: [Sar]ICSRSLP[Pro(trans-4-F)]ICIPD-OH
modifications: disulfide 3-11; N-terminus assumed
SMILES: CC[C@H](C)[C@H](NC(=O)CNC)C(=O)N[C@H]1CSSC[C@@H](C(=O)N[C@H](C(=O)N2CCC[C@H]2C(=O)N[C@@H](CC(=O)O)C(=O)O)[C@@H](C)CC)NC(=O)[C@H]([C@@H](C)CC)NC(=O)[C@@H]2C[C@@H](F)CN2C(=O)[C@@H]2CCCN2C(=O)[C@H](CC(C)C)NC(=O)[C@H](CO)NC(=O)[C@H](CCCNC(=N)N)NC(=O)[C@H](CO)NC1=O
human MASP1 IC50 [1]: 47 nM | human MASP2 IC50 [2]: 1300 nM

Binder: {(2S,3S)‑2‑((3S)-2-oxopiperazin-1-yl)‑3‑methylpentanoic acid}-CSRSLPPICIAD-OH (disulfide 1-9) [Example 393: ((2S,3S)-2-[(3S)-2-oxopiperazin-1-yl]-3-methylpentanoic acid)-C+SRSLPPIC+IAD-OH]
human MASP1 IC50 [1]: 49 nM | human MASP2 IC50 [2]: 3800 nM

B11: Example 382: (Cyclobutylacetic)-IC+SRS-((tBu)A)-PPI-((N-Me)C)+I-NH2 (peptide)
peptide: Cyclobutylacetic-ICSRS[tBuAla]PPI[NMeC]I-NH2
modifications: disulfide 2-10
SMILES: CC[C@H](C)[C@H](NC(=O)[C@@H]1CSSC[C@H](NC(=O)[C@@H](NC(=O)CC2CCC2)[C@@H](C)CC)C(=O)N[C@@H](CO)C(=O)N[C@@H](CCCNC(=N)N)C(=O)N[C@@H](CO)C(=O)N[C@@H](CC(C)(C)C)C(=O)N2CCC[C@H]2C(=O)N2CCC[C@H]2C(=O)N[C@@H]([C@@H](C)CC)C(=O)N1C)C(N)=O
human MASP1 IC50 [1]: 40 nM | human MASP2 IC50 [2]: 41 nM

B12: Example 383: (Ahx)-IC+SRSLP-(Oic)-IC+I-OH (peptide)
peptide: [Ahx]ICSRSLP[Oic]ICI-OH
modifications: disulfide 3-11; N-terminus assumed
SMILES: CC[C@H](C)[C@H](NC(=O)[C@@H]1CSSC[C@H](NC(=O)[C@@H](NC(=O)CCCCCN)[C@@H](C)CC)C(=O)N[C@@H](CO)C(=O)N[C@@H](CCCNC(=N)N)C(=O)N[C@@H](CO)C(=O)N[C@@H](CC(C)C)C(=O)N2CCC[C@H]2C(=O)N2[C@@H](C[C@@H]3CCCC[C@@H]32)C(=O)N[C@@H]([C@@H](C)CC)C(=O)N1)C(=O)O
human MASP1 IC50 [1]: 40 nM | human MASP2 IC50 [2]: 800 nM

B13: Example 378: PPIC+SRS-((tBu)A)-PPI-(Pen)+IP-NH2 (peptide)
peptide: PPICSRS[tBuAla]PPI[Pen]IP-NH2
modifications: disulfide 4-12; N-terminus assumed
SMILES: CC[C@H](C)[C@H](NC(=O)[C@@H]1CCCN1C(=O)[C@@H]1CCCN1)C(=O)N[C@H]1CSSC(C)(C)[C@@H](C(=O)N[C@H](C(=O)N2CCC[C@H]2C(N)=O)[C@@H](C)CC)NC(=O)[C@H]([C@@H](C)CC)NC(=O)[C@@H]2CCCN2C(=O)[C@@H]2CCCN2C(=O)[C@H](CC(C)(C)C)NC(=O)[C@H](CO)NC(=O)[C@H](CCCNC(=N)N)NC(=O)[C@H](CO)NC1=O
human MASP1 IC50 [1]: 38 nM | human MASP2 IC50 [2]: 1100 nM

Now from value to binder:

human MASP1 IC50 [1]: 45 nM | human MASP2 IC50 [2]: 750 nM
B2: Example 388: IC+SRSLP-(Oic)-I-(Pen)+IPQ-OH (peptide)
peptide: ICSRSLP[Oic]I[Pen]IPQ-OH
modifications: disulfide 2-10; N-terminus assumed
SMILES: CC[C@H](C)[C@H](N)C(=O)N[C@H]1CSSC(C)(C)[C@@H](C(=O)N[C@H](C(=O)N2CCC[C@H]2C(=O)N[C@@H](CCC(N)=O)C(=O)O)[C@@H](C)CC)NC(=O)[C@H]([C@@H](C)CC)NC(=O)[C@@H]2C[C@@H]3CCCC[C@@H]3N2C(=O)[C@@H]2CCCN2C(=O)[C@H](CC(C)C)NC(=O)[C@H](CO)NC(=O)[C@H](CCCNC(=N)N)NC(=O)[C@H](CO)NC1=O

human MASP1 IC50 [1]: 40 nM | human MASP2 IC50 [2]: 810 nM
B6: Example 380: GIC+SRSL-(Hyp)-PIC+IPD-OH (peptide)
peptide: GICSRSL[Hyp]PICIPD-OH
modifications: disulfide 3-11; N-terminus assumed
SMILES: CC[C@H](C)[C@H](NC(=O)CN)C(=O)N[C@H]1CSSC[C@@H](C(=O)N[C@H](C(=O)N2CCC[C@H]2C(=O)N[C@@H](CC(=O)O)C(=O)O)[C@@H](C)CC)NC(=O)[C@H]([C@@H](C)CC)NC(=O)[C@@H]2CCCN2C(=O)[C@@H]2C[C@@H](O)CN2C(=O)[C@H](CC(C)C)NC(=O)[C@H](CO)NC(=O)[C@H](CCCNC(=N)N)NC(=O)[C@H](CO)NC1=O

human MASP1 IC50 [1]: 44 nM | human MASP2 IC50 [2]: 2200 nM
B7: Example 387: (Lactic)-IC+SRS-((tBu)A)-PPIC+IPD-NH2 (peptide)
peptide: [Lac]ICSRS[tBuAla]PPICIPD-NH2
modifications: disulfide 3-11; N-terminus assumed
SMILES: CC[C@H](C)[C@H](NC(=O)[C@H](C)O)C(=O)N[C@H]1CSSC[C@@H](C(=O)N[C@H](C(=O)N2CCC[C@H]2C(=O)N[C@@H](CC(=O)O)C(N)=O)[C@@H](C)CC)NC(=O)[C@H]([C@@H](C)CC)NC(=O)[C@@H]2CCCN2C(=O)[C@@H]2CCCN2C(=O)[C@H](CC(C)(C)C)NC(=O)[C@H](CO)NC(=O)[C@H](CCCNC(=N)N)NC(=O)[C@H](CO)NC1=O

human MASP1 IC50 [1]: 54 nM | human MASP2 IC50 [2]: 3800 nM
Binder: {(2S,3S)‑2‑(2-Oxopiperazin-1-yl)‑3‑methylpentanoic acid}-CSRSLPPICIPD-OH (disulfide 1-9) [Example 397: ((2S,3S)-2-[2-Oxopiperazin-1-yl]-3-methylpentanoic acid)-C+SRSLPPIC+IPD-OH]

human MASP1 IC50 [1]: 43 nM | human MASP2 IC50 [2]: 750 nM
B8: Example 386: ((N-Me)G)-IC+SRSLPPIC+IpD-OH (peptide)
peptide: [Sar]ICSRSLPPICI[dP]D-OH
modifications: disulfide 3-11; N-terminus assumed
SMILES: CC[C@H](C)[C@H](NC(=O)CNC)C(=O)N[C@H]1CSSC[C@@H](C(=O)N[C@H](C(=O)N2CCC[C@@H]2C(=O)N[C@@H](CC(=O)O)C(=O)O)[C@@H](C)CC)NC(=O)[C@H]([C@@H](C)CC)NC(=O)[C@@H]2CCCN2C(=O)[C@@H]2CCCN2C(=O)[C@H](CC(C)C)NC(=O)[C@H](CO)NC(=O)[C@H](CCCNC(=N)N)NC(=O)[C@H](CO)NC1=O
